In patent publication US20240317840A1 (Novartis, published 2024):
Read-outs that look alike come from different tables or passages of the source.

Legend:
[1] = molecular target: HBsAg clinical mutation D144A (Hepatitis B virus); assay: sandwich ELISA, captured mutant HBsAg from culture supernatant;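 note: Anti-HBsAg antibodies tested for binding to mutant HBsAg secreted by stably transfected cell lines, supernatant incubated 1 h on antibody-coated plates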
Method: (§1) The binding of anti-HBsAg antibodies to 4 well characterized vaccine and/or HBsAg clinical mutations of HBsAg (G145R, D144A, T126S, M133L) were analyzed by sandwich ELISA. […] Supernatant collected from HBsAg cell-culture derived clinical mutation stables (G145R, D144A, T126S, M133L) was allowed to bind antibody coated plates for 1 hour.

[2] = molecular target: HBsAg clinical mutation M133L (Hepatitis B virus); assay: as above
Method: as §1

[3] = molecular target: HBsAg clinical mutation T126S (Hepatitis B virus); assay: as above
Method: as §1

[4] = molecular target: HBsAg of HBV genotype D, serotype ayw (Hepatitis B virus); assay: cell-based or functional assay
[5] = molecular target: HBsAg clinical mutation D144A (Hepatitis B virus); assay: sandwich ELISA, mutant HBsAg from cell supernatant captured on horse polyclonal anti-HBsAg, antibody titrated, absorbance 450 nm
[6] = molecular target: HBsAg clinical mutation M133L (Hepatitis B virus); assay: as above
[7] = molecular target: HBsAg clinical mutation T126S (Hepatitis B virus); assay: as above
[8] = molecular target: T1, HBsAg of HBV genotype A (AY934772) (Hepatitis B virus); assay: sandwich ELISA, captured HBsAg from culture supernatant
T1 construct: captured from supernatant by horse polyclonal anti-HBsAg
Method: (§2) The binding of anti-HBsAg antibodies to the 4 major genotypes (A-D) of HBV were analyzed by sandwich ELISA.

[9] = molecular target: HBsAg of HBV genotype C (DQ087960) (Hepatitis B virus); assay: as above
Method: as §2

[10] = molecular target: HBsAg of HBV genotype B (AF 121245) (Hepatitis B virus); assay: as above
Method: as §2

HBsAg AD serotype [11] = molecular target: T2, HBsAg AD serotype (Hepatitis B virus); assay: SPR Biacore T200, HBsAg particles immobilized, antibody as analyte, 1:1 fit;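 note: Anti-HBsAg antibodies assessed for binding against both major HBsAg serotypes, AY and AD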
T2 construct: also called HBsAg serotype AD
Method: (§3) Binding affinity interaction (KD) of the anti-HBsAg antibodies with the two major serotypes of HBsAg, AY and AD, was determined utilizing surface plasma resonance (SPR) technology.

HBsAg AY serotype [12] = molecular target: T3, HBsAg AY serotype (Hepatitis B virus); assay: as above
T3 construct: also called HBsAg serotype AY
Method: as §3

[13] = molecular target: HBsAg clinical mutation G145R (Hepatitis B virus); assay: sandwich ELISA, captured mutant HBsAg from culture supernatant;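 note: Anti-HBsAg antibodies tested for binding to mutant HBsAg secreted by stably transfected cell lines, supernatant incubated 1 h on antibody-coated plates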
Method: as §1

HBsAg AD serotype [14] = molecular target: T2, HBsAg AD serotype; assay: SPR epitope binning; competitor (1st, saturating Ab): HBC34
Method: (§4) Epitope binning of anti-HBsAg antibodies with the two major serotypes of HBsAg, AY and AD, was performed utilizing surface plasmon resonance (SPR) technology. […] Each pair of antibodies was tested for blocking one another's binding to their epitope on the antigen by subsequently applying one antibody as first (saturating) followed by the other as second (competing) antibody and vice versa. Saturating antibodies were applied at 500 nM for 120s. Competing antibodies utilized the same conditions but were supplemented with the first antibody at 500 nM to maintain saturation. Binding signals were corrected by subtracting the reference cell signal. Specific binding of the competing antibody in presence of the saturating antibody was calculated by subtracting a saturating antibody plus buffer reference signal. All signals were normalized to 100 RU of immobilized ligand. The specific binding signal obtained from the application as competing antibody was expressed as percentage of the binding signal obtained from the application of the same antibody as saturating (first) antibody, the signal of which was regarded 100% binding.

HBsAg AY serotype [15] = molecular target: T3, HBsAg AY serotype; assay: as above
Method: as §4

[16] = molecular target: HBsAg clinical mutation D144A (Hepatitis B virus); assay: sandwich ELISA, mutant HBsAg from cell supernatant captured on horse polyclonal anti-HBsAg, antibody titrated, absorbance 450 nm; remark: listed apart in the source
[17] = molecular target: HBsAg clinical mutation M133L (Hepatitis B virus); assay: as above; remark: listed apart in the source
[18] = molecular target: HBsAg clinical mutation T126S (Hepatitis B virus); assay: as above; remark: listed apart in the source
HBsAg AD serotype [19] = molecular target: T2, HBsAg AD serotype; assay: SPR epitope binning; competitor (1st, saturating Ab): CR8087
Method: as §4

HBsAg AY serotype [20] = molecular target: T3, HBsAg AY serotype; assay: as above
Method: as §4

[21] = molecular target: HBsAg clinical mutation M133L (Hepatitis B virus); assay: sandwich ELISA, mutant HBsAg from cell supernatant captured on horse polyclonal anti-HBsAg, antibody titrated, absorbance 450 nm; remark: listed apart in the source
[22] = molecular target: HBsAg clinical mutation T126S (Hepatitis B virus); assay: as above; remark: listed apart in the source
[23] = molecular target: HBsAg clinical mutation M133L (Hepatitis B virus); assay: as above; remark: listed apart in the source
[24] = molecular target: HBsAg clinical mutation T126S (Hepatitis B virus); assay: as above; remark: listed apart in the source
[25] = molecular target: HBsAg clinical mutation M133L (Hepatitis B virus); assay: as above; remark: listed apart in the source
[26] = molecular target: HBsAg clinical mutation T126S (Hepatitis B virus); assay: as above; remark: listed apart in the source
[27] = molecular target: HBsAg clinical mutation M133L (Hepatitis B virus); assay: as above; remark: listed apart in the source
[28] = molecular target: HBsAg clinical mutation T126S (Hepatitis B virus); assay: as above; remark: listed apart in the source

| Binder | IC50 [1] [nM] | IC50 [2] [nM] | IC50 [3] [nM] | Virus neutralization EC50 [4] [nM] | IC50 [8] [nM] | IC50 [9] [nM] | IC50 [10] [nM] | Kd (HBsAg AD serotype [11]) [nM] | Kd (HBsAg AY serotype [12]) [nM] | IC50 [13] [nM] | binding of second antibody (HBsAg AD serotype [14]) | binding of second antibody (HBsAg AY serotype [15]) | binding of second antibody (HBsAg AD serotype [19]) | binding of second antibody (HBsAg AY serotype [20]) | also measured |
| --- | --- | --- | --- | --- | --- | --- | --- | --- | --- | --- | --- | --- | --- | --- | --- |
| NOV3840 (antibody, human IgG1, lambda, V domains shown, Full human IgG1 (lambda) expressed in CHO cells) VH: EVQLLESGGGLVQPGGSRRLSCAASGFTFSYYGMNWVRQAPGKGLEWVSGITNSGSITYYADSVKGRFSISRDNSKNTLFLQMNSLRAEDTAVYYCAKVGVRSSSGMWDLDYWGQGTLVTVSS VL: SYVLTQPPSVSVAPGQTARLSCGGNNIGSKSLQWYQQKPGQAPVLVVNDDSDRPSGIPERFSGSNSGNTATLTISRVEAGDEADYYCQVWDTSSDHVVFGGGTKLTVLG | 0.012 | 0.013 | 0.01 | 0.056 | 0.023 | 0.016 | 0.022 | 0.45 | 0.38 |  |  |  |  |  | EC50 (read off the curve) [5]: ~0.02 nM; EC50 (read off the curve) [6]: ~0.02 nM; EC50 (read off the curve) [7]: ~0.02 nM |
| NOV3842 (antibody, human IgG1, lambda, V domains shown, Full human IgG1 (lambda) expressed in CHO cells) VH: EVQLLESGGGLVQPGGSRRLSCAASGFTFSYYGMNWVRQAPGKGLEWVSGITNVGSITYYADTVKGRFSISRDNSKNTLFLQMNSLRAEDTAVYYCAKVGVRSSSGMWDLDYWGQGTLVTVSS VL: SYVLTQPPSVSVAPGQTARLSCGGNNIGSKSLQWYQQKPGQAPVLVVNDESDRPSGIPERFSGSNSGNTATLTISRVEAGDEADYYCQVWDTSSDHVVFGGGTKLTVLG | 0.12 | 0.084 | 0.042 | 0.23 | 0.46 | 0.75 | 0.28 | 0.13 | 0.15 | > 67 | 115 % of its binding as first antibody | 103 % of its binding as first antibody | 216 % of its binding as first antibody | 118 % of its binding as first antibody | EC50 (read off the curve) [16]: ~0.1 nM; EC50 (read off the curve) [17]: ~0.05 nM; EC50 (read off the curve) [18]: ~0.05 nM |
| NOV3841 (antibody, human IgG1, lambda, V domains shown, Full human IgG1 (lambda) expressed in CHO cells) VH: EVQLLESGGGLVQPGGSRRLSCAASGFTFSYYGMNWVRQAPGKGLEWVSGITQSGSITYYADTVKGRFSISRDNSKNTLFLQMNSLRAEDTAVYYCAKVGVRSSSGMWDLDYWGQGTLVTVSS VL: SYVLTQPPSVSVAPGQTARLSCGGNNIGSKSLQWYQQKPGQAPVLVVNDESDRPSGIPERFSGSNSGNTATLTISRVEAGDEADYYCQVWDTSSDHVVFGGGTKLTVLG | 7.8 | 0.044 | 0.079 | 0.74 | 1.1 | 2 | 0.35 | 0.91 | 0.61 | > 67 | 145 % of its binding as first antibody | 107 % of its binding as first antibody | 282 % of its binding as first antibody | 129 % of its binding as first antibody | EC50 (read off the curve) [21]: ~0.06 nM; EC50 (read off the curve) [22]: ~0.07 nM |
| NOV3837 (antibody, human IgG1, kappa, V domains shown, Full human IgG1 (kappa) expressed in CHO cells) VH: QVQLQESGGRLVRPGGSLRLSCAASGFIFTDYYMTWIRQAPGKGPEWIAFITSGGETTYYADSVKGRFTISRDNAKKSLFLQMYSLRADDTAVYYCVRAHFDGYQYDTRGDFTYYFDNWGLGTLVSVSS VL: EIVMTQSPATLSVSPGERVTLSCRASQSVSSSLAWYQQKPGRAPRLLIYGASTRATGVPARFSGGGSGTDFTLTISSLQSEDFAVYYCHQYINWPPGDTFGQGTRLDIKR | 0.27 | 0.035 | 0.03 | 0.049 | 0.093 | 0.17 | 0.069 | 0.67 | 0.75 |  |  |  |  |  | EC50 (read off the curve) [23]: ~0.04 nM; EC50 (read off the curve) [24]: ~0.03 nM |
| NOV3838 (antibody, human IgG1, kappa, V domains shown, Full human IgG1 (kappa) expressed in CHO cells) VH: QVQLQESGGRLVRPGGSLRLSCAASGFIFTDYYMTWIRQAPGKGPEWIAFITSGGETTYYADSVKGRFTISRDNAKKSLFLQMYSLRADDTAVYYCVRAHFDLYQYDTRGDFTYYFDNWGLGTLVSVSS VL: EIVMTQSPATLSVSPGERVTLSCRASQSVSSSLAWYQQKPGRAPRLLIYGASTRATGVPARFSGGGSGTDFTLTISSLQSEDFAVYYCHQYINWPPGDTFGQGTRLDIKR | 6.1 | 0.15 | 0.11 | 0.12 | 0.2 | 0.21 | 0.05 | 0.68 | 0.6 | 5.2 |  |  |  |  | EC50 (read off the curve) [25]: ~0.2 nM; EC50 (read off the curve) [26]: ~0.1 nM |
| NOV3839 (antibody, human IgG1, kappa, V domains shown, Full human IgG1 (kappa) expressed in CHO cells) VH: QVQLQESGGRLVRPGGSLRLSCAASGFIFTDYYMTWIRQAPGKGPEWIAFITSGGETTYYADSVKGRFTISRDNAKKSLFLQMYSLRADDTAVYYCVRAHFDIYQYDTRGDFTYYFDNWGLGTLVSVSS VL: EIVMTQSPATLSVSPGERVTLSCRASQSVSSSLAWYQQKPGRAPRLLIYGASTRATGVPARFSGGGSGTDFTLTISSLQSEDFAVYYCHQYINWPPGDTFGQGTRLDIKR | 3.6 | 0.085 | 0.088 | 0.09 | 1.6 | 0.37 | 0.17 | 0.59 | 2.4 | 8.6 |  |  |  |  | EC50 (read off the curve) [27]: ~0.1 nM; EC50 (read off the curve) [28]: ~0.1 nM |
